Literature values, collected in PMC11945212.
pKd: −log10 of the molar value.

Target: Adducin (Homo sapiens) (UniProt P35611)
UniProt P35611, sequence (P35611 whole entry, chain 1 of 2): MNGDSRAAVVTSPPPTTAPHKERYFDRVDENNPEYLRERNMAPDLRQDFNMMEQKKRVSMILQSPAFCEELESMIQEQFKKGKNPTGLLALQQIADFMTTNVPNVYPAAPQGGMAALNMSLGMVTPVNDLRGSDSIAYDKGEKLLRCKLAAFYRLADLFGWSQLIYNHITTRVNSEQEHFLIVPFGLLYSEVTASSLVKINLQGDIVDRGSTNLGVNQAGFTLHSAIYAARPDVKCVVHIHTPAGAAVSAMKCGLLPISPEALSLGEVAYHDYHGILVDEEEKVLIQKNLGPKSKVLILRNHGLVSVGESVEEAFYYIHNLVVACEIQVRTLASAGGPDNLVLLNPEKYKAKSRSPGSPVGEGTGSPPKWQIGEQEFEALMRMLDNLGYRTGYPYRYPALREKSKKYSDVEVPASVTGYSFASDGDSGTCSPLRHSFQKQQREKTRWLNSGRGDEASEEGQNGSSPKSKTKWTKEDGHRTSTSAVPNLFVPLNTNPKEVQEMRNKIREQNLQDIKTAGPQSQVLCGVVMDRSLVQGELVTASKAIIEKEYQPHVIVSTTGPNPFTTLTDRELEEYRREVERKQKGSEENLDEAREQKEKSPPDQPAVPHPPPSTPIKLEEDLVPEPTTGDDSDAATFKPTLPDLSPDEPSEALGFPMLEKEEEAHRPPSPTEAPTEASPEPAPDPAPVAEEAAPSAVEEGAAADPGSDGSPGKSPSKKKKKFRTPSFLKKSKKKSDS
UniProt P35611, sequence (P35612 whole entry, chain 2 of 2, further chain): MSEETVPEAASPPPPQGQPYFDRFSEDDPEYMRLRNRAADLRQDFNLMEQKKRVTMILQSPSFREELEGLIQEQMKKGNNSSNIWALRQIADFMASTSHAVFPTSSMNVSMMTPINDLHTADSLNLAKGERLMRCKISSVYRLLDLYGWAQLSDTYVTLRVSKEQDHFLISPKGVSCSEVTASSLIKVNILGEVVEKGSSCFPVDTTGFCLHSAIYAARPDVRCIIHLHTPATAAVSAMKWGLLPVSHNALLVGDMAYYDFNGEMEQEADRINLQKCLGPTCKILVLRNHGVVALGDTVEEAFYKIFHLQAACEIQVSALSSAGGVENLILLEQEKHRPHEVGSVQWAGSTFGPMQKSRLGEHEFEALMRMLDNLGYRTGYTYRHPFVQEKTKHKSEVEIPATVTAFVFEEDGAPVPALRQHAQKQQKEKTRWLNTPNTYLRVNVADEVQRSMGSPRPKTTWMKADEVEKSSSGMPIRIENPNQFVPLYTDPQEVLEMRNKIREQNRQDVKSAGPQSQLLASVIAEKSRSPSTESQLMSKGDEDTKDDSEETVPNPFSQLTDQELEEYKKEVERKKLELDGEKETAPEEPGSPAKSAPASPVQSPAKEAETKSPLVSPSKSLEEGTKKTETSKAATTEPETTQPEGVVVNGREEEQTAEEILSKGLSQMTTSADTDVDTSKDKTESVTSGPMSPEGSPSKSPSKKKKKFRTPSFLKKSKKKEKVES

- pKd: 7.00
Substance: Band 3 (from UniProt P02730)
